Data as given in the Immune Epitope Database (IEDB).
pIC50: −log10 of the molar value.

Each sequence was assayed against HLA-A*02:03 (assay: IEDB peptide-MHC binding, cellular MHC/competitive/fluorescence; ≥ and ≤ were set here for values at or beyond the usual limits of such assays). Conditions: source organism: Vaccinia virus WR.
In the case of DVGCLLTDTI, the pIC50 was 4.81. DVKVLAARL showed a pIC50 of 4.97. DVNEEYTEAA was tested, and the pIC50 was 4.54. EAKTHFSTT showed a pIC50 of 4.60. With EIDVSEVKT the pIC50 was ≤ 4.15. In the case of EIITGNKVKT, the pIC50 was ≤ 4.15. With ELEKCTSEI the pIC50 was 4.25. For ELTNKKYRCM, the pIC50 was ≤ 4.15. ELTSNCTRT was tested, and the pIC50 was ≤ 4.15. For ELVMDKNHAI, the pIC50 was ≤ 4.15. With EMQLKIDKLT the pIC50 was 5.17. With FASADNHPKM the pIC50 was 4.32. With GANGSTAEQL the pIC50 was 4.34. With GIDTSNNIA the pIC50 was ≤ 4.15. For GTKGKLYIAL, the pIC50 was 5.11. Sequence IAVFDSKLI has a pIC50 of 4.93. With IMECSRMLDT the pIC50 was 5.14. With LLDEPLSPDT the pIC50 was 5.00. In the case of PLTLLIKTL, the pIC50 was 5.21. Work on QQNNSFIIST yielded a pIC50 of 5.30. With QTLISLNSM the pIC50 was 4.41. SILNNPVDT showed a pIC50 of 4.51. Sequence VAEHRFENM has a pIC50 of 5.15. VVIVENDNVI was tested, and the pIC50 was 4.99. Sequence YTEAAAATCA has a pIC50 of 4.79.

These sequences were tested against HLA-A*02:06 in the same assay as above. Conditions: source organism: Influenza A virus.
In the case of AAFEDLRL, the pIC50 was 4.33. AAFEDLRV gave a pIC50 of 4.73. With ALSYSAGA the pIC50 was ≤ 4.15. For ALSYSTGA, the pIC50 was ≤ 4.15. In the case of ATAILRKA, the pIC50 was ≤ 4.15. With ATALANTI the pIC50 was ≤ 4.15. With ATKRIRMA the pIC50 was ≤ 4.15. For ATRRMIQL, the pIC50 was ≤ 4.15. Work on ATVSADPL yielded a pIC50 of 4.67. For ATYQRTRA, the pIC50 was ≤ 4.15. AVPNGTLV gave a pIC50 of 4.97. In the case of GLQSSDDFA, the pIC50 was ≤ 4.15. In the case of TVQIIKLL, the pIC50 was 4.29. Sequence WILWISFAIS has a pIC50 of 4.57.

Same assay, conditions: source organism: Mammarenavirus choriomeningitidis
GTMPSLTMAC gave a pIC50 of 4.92.

Same assay, conditions: source organism: Mammarenavirus guanaritoense
With YCLDFLFDV the pIC50 was ≤ 4.15.

Same assay, conditions: source organism: Vaccinia virus WR
For AARLKRSAT, the pIC50 was 4.20. Sequence AATKRYPGVM has a pIC50 of 4.33. Work on AIDRQVSVKL yielded a pIC50 of 4.50. For AIKQYGDIDL, the pIC50 was ≤ 4.15. In the case of AIKSNNHLT, the pIC50 was ≤ 4.15. Sequence AINKCVDIFT has a pIC50 of 4.41. ALEPRKEIDV gave a pIC50 of 4.20. ATQFNFNGHT was tested, and the pIC50 was 4.58. AVSVYGAIT gave a pIC50 of 4.85. For CLEAKTHFST, the pIC50 was ≤ 4.15. With CTEETKRNIA the pIC50 was ≤ 4.15. For CVRLNNPVIL, the pIC50 was 4.35. Sequence CVRNLEELTT has a pIC50 of 4.37. In the case of DAKRNSKSL, the pIC50 was ≤ 4.15. DIDLLFNEKL gave a pIC50 of 4.59. Work on DILQMREIIT yielded a pIC50 of 4.75. DIMLPESDL was tested, and the pIC50 was 4.50. DISVNASKTI was tested, and the pIC50 was ≤ 4.15. In the case of DIVSDSKKIM, the pIC50 was ≤ 4.15. DLAIKQYGDI showed a pIC50 of 4.33. DLDKVYEIL was tested, and the pIC50 was 4.27. For DMICCDSRIV, the pIC50 was 4.72. For DMLLNVQTL, the pIC50 was 4.87. DVCKKNLDL was tested, and the pIC50 was 4.79. Sequence DVEKEKFVAT has a pIC50 of 4.16. For DVEKRILNT, the pIC50 was ≤ 4.15. In the case of DVGCLLTDT, the pIC50 was ≤ 4.15. DVGCLLTDTI gave a pIC50 of 5.00. For DVKVLAARL, the pIC50 was 5.00. In the case of DVNEEYTEAA, the pIC50 was 4.22. EAKTHFSTT was tested, and the pIC50 was 4.26. EIDVSEVKT was tested, and the pIC50 was ≤ 4.15. With EIITGNKVKT the pIC50 was ≤ 4.15. Sequence ELEKCTSEI has a pIC50 of 4.24. With ELTNKKYRCM the pIC50 was ≤ 4.15. Work on ELTSNCTRT yielded a pIC50 of 4.33. In the case of ELVMDKNHAI, the pIC50 was ≤ 4.15. In the case of EMQLKIDKLT, the pIC50 was ≤ 4.15. With FASADNHPKM the pIC50 was ≤ 4.15. In the case of GANGSTAEQL, the pIC50 was 4.26. With GIDTSNNIA the pIC50 was 4.60. For GTKGKLYIAL, the pIC50 was 4.43. IAVFDSKLI gave a pIC50 of 4.92. For IMECSRMLDT, the pIC50 was ≤ 4.15. Work on LLDEPLSPDT yielded a pIC50 of 5.11. PLTLLIKTL was tested, and the pIC50 was 5.09. QQNNSFIIST gave a pIC50 of 5.24. QTLISLNSM showed a pIC50 of 5.12. In the case of SILNNPVDT, the pIC50 was 4.85. VAEHRFENM showed a pIC50 of 4.32. VVIVENDNVI gave a pIC50 of 4.97. YTEAAAATCA gave a pIC50 of 5.15.

The sequences below were run against HLA-A*68:02 in the same assay as above. Conditions: source organism: Influenza A virus.
AAFEDLRL was tested, and the pIC50 was 4.22. With AAFEDLRV the pIC50 was ≤ 4.15. In the case of ALSYSAGA, the pIC50 was ≤ 4.15. With ALSYSTGA the pIC50 was ≤ 4.15. In the case of ATAILRKA, the pIC50 was ≤ 4.15. In the case of ATALANTI, the pIC50 was 4.39. With ATKRIRMA the pIC50 was 4.23. For ATRRMIQL, the pIC50 was ≤ 4.15. Work on ATVSADPL yielded a pIC50 of 4.37. ATYQRTRA was tested, and the pIC50 was ≤ 4.15. With AVPNGTLV the pIC50 was 4.37. GLQSSDDFA was tested, and the pIC50 was ≤ 4.15.

Same assay, conditions: source organism: Mammarenavirus choriomeningitidis
For GTMPSLTMAC, the pIC50 was ≤ 4.15.

Same assay, conditions: source organism: Vaccinia virus WR
For AARLKRSAT, the pIC50 was ≤ 4.15. With AATKRYPGVM the pIC50 was ≤ 4.15. For AIDRQVSVKL, the pIC50 was 4.28. AIKQYGDIDL showed a pIC50 of 4.41. AIKSNNHLT showed a pIC50 of 4.34. AINKCVDIFT showed a pIC50 of 4.41. With ALEPRKEIDV the pIC50 was ≤ 4.15. ATQFNFNGHT was tested, and the pIC50 was 4.63. With AVSVYGAIT the pIC50 was 5.20. With CLEAKTHFST the pIC50 was ≤ 4.15. With CTEETKRNIA the pIC50 was 4.82. In the case of CVRLNNPVIL, the pIC50 was ≤ 4.15. CVRNLEELTT gave a pIC50 of 4.48. With DAKRNSKSL the pIC50 was ≤ 4.15. DIDLLFNEKL gave a pIC50 of 4.80. In the case of DILQMREIIT, the pIC50 was 4.69. DIMLPESDL gave a pIC50 of 4.87. With DISVNASKTI the pIC50 was 4.84. For DIVSDSKKIM, the pIC50 was ≤ 4.15. In the case of DLAIKQYGDI, the pIC50 was 5.11. DLDKVYEIL was tested, and the pIC50 was ≤ 4.15. With DMICCDSRIV the pIC50 was 4.87. For DMLLNVQTL, the pIC50 was 5.30. DVCKKNLDL was tested, and the pIC50 was 4.39. For DVEKEKFVAT, the pIC50 was ≤ 4.15. With DVEKRILNT the pIC50 was ≤ 4.15. In the case of DVGCLLTDT, the pIC50 was ≤ 4.15. DVGCLLTDTI gave a pIC50 of 4.56. For DVKVLAARL, the pIC50 was 5.10. Work on DVNEEYTEAA yielded a pIC50 of 4.80. EAKTHFSTT was tested, and the pIC50 was 4.88. Sequence EIDVSEVKT has a pIC50 of 4.70. With EIITGNKVKT the pIC50 was ≤ 4.15. ELEKCTSEI showed a pIC50 of 4.61. ELTNKKYRCM was tested, and the pIC50 was 4.86. ELTSNCTRT was tested, and the pIC50 was ≤ 4.15. For ELVMDKNHAI, the pIC50 was 4.71. Work on EMQLKIDKLT yielded a pIC50 of 4.37. FASADNHPKM was tested, and the pIC50 was ≤ 4.15. Work on GANGSTAEQL yielded a pIC50 of 4.87. With GIDTSNNIA the pIC50 was ≤ 4.15. GTKGKLYIAL showed a pIC50 of 5.12. IAVFDSKLI gave a pIC50 of 5.17. IMECSRMLDT was tested, and the pIC50 was ≤ 4.15. For LLDEPLSPDT, the pIC50 was ≤ 4.15. With PLTLLIKTL the pIC50 was 5.21. For QQNNSFIIST, the pIC50 was 5.07. QTLISLNSM was tested, and the pIC50 was 4.71. Work on SILNNPVDT yielded a pIC50 of 4.33. VVIVENDNVI gave a pIC50 of 4.65.

Each sequence was assayed against HLA-A*02:01 (assay: IEDB peptide-MHC binding, purified MHC/competitive/radioactivity; ≥ and ≤ were set here for values at or beyond the usual limits of such assays). Conditions: source organism: Vaccinia virus WR.
DMLLNVQTL gave a pIC50 of 5.50. IAVFDSKLI showed a pIC50 of 5.41. IMECSRMLDT was tested, and the pIC50 was 5.51. In the case of LLDEPLSPDT, the pIC50 was 5.44. PLTLLIKTL showed a pIC50 of 5.32. With QQNNSFIIST the pIC50 was 5.91. In the case of QTLISLNSM, the pIC50 was 5.32. Sequence SILNNPVDT has a pIC50 of 5.33. VVIVENDNVI was tested, and the pIC50 was 5.55.

These sequences were tested against HLA-A*68:02 in the same assay as above. Conditions: source organism: Influenza A virus.
With TVQIIKLL the pIC50 was 5.86. WILWISFAIS gave a pIC50 of 5.60.

Same assay, conditions: source organism: Mammarenavirus guanaritoense
In the case of YCLDFLFDV, the pIC50 was 7.62.

Same assay, conditions: source organism: Vaccinia virus WR
VAEHRFENM was tested, and the pIC50 was 5.36. Work on YTEAAAATCA yielded a pIC50 of 6.80.
